Data as given in patent publication US20230257435A1, “Wound Healing Composition and Uses Thereof” (AGENCY FOR SCIENCE, TECHNOLOGY AND RESEARCH, priority 2020, published 2023).

Tested on: primary mouse keratinocytes
Experiment: BrDu proliferation assay of mouse keratinocytes
Format: cell-based
Settings: increasing concentrations of sAgrin
Description: (a) The protein sequence of the C-terminal Agrin fragment used as bio-additive. Gel-filtration profile of purified sAgrin. The recombinant sAgrin were tested in a Coomassie stained gel and by Western blot using an Agrin antibody. (b) BrDu proliferation assay of mouse keratinocytes cells treated with increasing concentrations of sAgrin for the indicated days (n=3 experiments, Students ‘t’ test, **p=0.001 and *p=0.01, respectively). (c) HaCaT/mouse keratinocytes cells treated with increasing doses of sAgrin were subjected to scratch wound assay. Representative bright-field images are shown at indicated times post-wounding. Scale bar: 20 μm. The resulting uncovered wound area presented as mean+/−s.d. was quantified using ImageJ (n=3, Students ‘t’ test, *p<0.01). (d) Untreated or sAgrin (10 μg/ml) HaCaT cells were scratched and allowed to migrate for 4 h. […] The relative diameter of wounds presented as mean+/−s.d. was measured on indicated days and represented graphically from one experiment (n=3 mice per group, One-way ANOVA, *p<0.04, **p<0.004, respectively). […] The degree of proliferating cells were quantified using ImageJ (n=3 sections analyzed from two independent mice wounds, Students ‘t’ tests, *p=0.01). […] The quantification of individual types of collagen fibers were done using ImageJ (n=3 sections analyzed per group, Students ‘t’ test, *p=0.01 and 0.05, respectively).

B1: sAgrin: C-terminus recombinant Agrin fragment containing 8 amino acid 'Z8' insert and LG3 domain (SEQ ID NO: 7), His-tagged, expressed in E. coli (protein)
chain: DTLAFDGRTFVEYLNAVTESELANEIPVEKALQSNHFELSLRTEATQGLVLWSGKATERADYVALAIVDGHLQLSYNLGSQPVVLRSTVPVNTNRWLRVVAHREQREGSLQVGNEAPVTGSSPLGATQLDTDGALWLGGLPELPVGPALPKAYGTGFVGCLRDVVVGRHPLHLLEDAVTKPELRPCPTP
modifications: His tag
B1 was tested, and the “proliferation (BrDu incorporation)” value was “supported the proliferation of primary mouse keratinocytes”.
